Experimental data published in the supplement of paper PMC10724198.
± gives the standard deviation of the averaged measurements.

Test system: Saccharomyces cerevisiae
Assay: protein stability index of tFT-peptide fusion (C-terminal peptide) (PSI (0-1 scale)); higher = more stable (slower turnover)
Details: genetic background: wild type; temperature: 30 C
Experimental: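 Multiplexed protein stability (MPS) profiling in S. cerevisiae. Random 12-aa peptides (tFT-X12 library) are fused to the C-terminus of a sfGFP-mCherry tandem fluorescent timer, after mCherry and a GGGS linker. Cells are FACS-sorted into 8 mCherry/sfGFP bins and deep-sequenced. The protein stability index (PSI) is the read-weighted bin average, scaled from 0 (unstable) to 1 (stable). Only peptides with >10 reads are reported; cells were grown at 30 °C in SC-His with glucose.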
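Note: PSI is a weighted mean of sequencing reads over stability bins, variants kept only with over 10 reads, mCherry proximal and sfGFP distal, peptide attached via GGGS linker.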

For SACPPIPPPPPP, which protein stability index is on record?
Its protein stability index is 0.635 ± 0.026.

For LFSPTFPTIYYA, which protein stability index is on record?
The protein stability index was 0.759 ± 0.059.

With KKEQKKKNKNDR as the sequence, how does the protein stability index read?
The protein stability index was 0.669 ± 0.025.

How did the protein stability index turn out when FSGRRGCFSSYI was run?
Its protein stability index is 0.653 ± 0.037.

For LCCSFGLFTLFW, which protein stability index is on record?
The protein stability index was 0.711 ± 0.042.

For VGRAGMPGSAES, which protein stability index is on record?
Its protein stability index is 0.66 ± 0.022.

ALRRWWCRGGRI was tested. Which protein stability index did it give?
Its protein stability index is 0.813 ± 0.024.

PPPPLSPPPPRP was tested. Which protein stability index did it give?
Its protein stability index is 0.693 ± 0.05.

PPTLPFSARSPP was tested. Which protein stability index did it give?
Its protein stability index is 0.659 ± 0.036.

Which protein stability index does the source give for TSPPHLPASSHS here?
The protein stability index was 0.689 ± 0.014.

ISPQEPLVNTTN was tested. Which protein stability index did it give?
Its protein stability index is 0.665 ± 0.018.

How did the protein stability index turn out when GAGRLGGDRVVG was run?
The protein stability index was 0.698 ± 0.037.

How did the protein stability index turn out when FFVAFGSWFGFL was run?
Its protein stability index is 0.677 ± 0.099.

Which protein stability index does the source give for EGPEGRDVVRRY here?
The protein stability index was 0.644 ± 0.0096.

For GGGGVACAGCTV, which protein stability index is on record?
Its protein stability index is 0.637 ± 0.056.

How did the protein stability index turn out when TTSDSVVFWTLH was run?
The protein stability index was 0.719 ± 0.0074.

With IIIEYNINRKKI as the sequence, how does the protein stability index read?
Its protein stability index is 0.611 ± 0.05.

Which protein stability index does the source give for SPQPPHSPLSAR here?
The protein stability index was 0.653 ± 0.024.

For PPHSPETVPARP, which protein stability index is on record?
Its protein stability index is 0.688 ± 0.046.

For ENPIASQWVRRY, which protein stability index is on record?
The protein stability index was 0.6737 ± 0.0039.

Which protein stability index does the source give for KKEGKTKSIRKK here?
Its protein stability index is 0.726 ± 0.013.

How did the protein stability index turn out when SPVLSPLSLPPH was run?
The protein stability index was 0.6982 ± 0.0042.

How did the protein stability index turn out when PPPPPPSLPLPP was run?
Its protein stability index is 0.6709 ± 0.0044.

For PRSPPPPAQPFV, which protein stability index is on record?
Its protein stability index is 0.705 ± 0.042.

LPPLPPRSPPPP was tested. Which protein stability index did it give?
The protein stability index was 0.731 ± 0.02.

Which protein stability index does the source give for LISLSHLSANQM here?
Its protein stability index is 0.665 ± 0.012.

For WGGGGVRGGMGG, which protein stability index is on record?
Its protein stability index is 0.781 ± 0.043.

Which protein stability index does the source give for FPSASPPFLPTP here?
Its protein stability index is 0.705 ± 0.037.

With SLWGFWRVVGRR as the sequence, how does the protein stability index read?
Its protein stability index is 0.594 ± 0.052.

Which protein stability index does the source give for KQDIETDKKEEG here?
Its protein stability index is 0.666 ± 0.13.

With YTSHRGKVYMSV as the sequence, how does the protein stability index read?
The protein stability index was 0.632 ± 0.019.

With YFSQPLGPSPLL as the sequence, how does the protein stability index read?
The protein stability index was 0.812 ± 0.074.

How did the protein stability index turn out when PVPSYYHKPPPL was run?
The protein stability index was 0.704 ± 0.019.

For KRKPEHKSAAEE, which protein stability index is on record?
Its protein stability index is 0.669 ± 0.038.

For FPLDNIALQSFP, which protein stability index is on record?
Its protein stability index is 0.774 ± 0.099.

How did the protein stability index turn out when GERWGGGRAAET was run?
The protein stability index was 0.714 ± 0.076.

KKKKIKKKEKNK was tested. Which protein stability index did it give?
Its protein stability index is 0.716 ± 0.079.

How did the protein stability index turn out when RPKWLCAIATAD was run?
Its protein stability index is 0.687 ± 0.023.

PTCALPKLLTHP was tested. Which protein stability index did it give?
The protein stability index was 0.796 ± 0.021.

For IWPGASLALLTS, which protein stability index is on record?
The protein stability index was 0.606 ± 0.011.

With GGGPGRGVWVRV as the sequence, how does the protein stability index read?
The protein stability index was 0.705 ± 0.021.

How did the protein stability index turn out when GWIAEFGLAGGP was run?
The protein stability index was 0.661 ± 0.0089.

NKIRIIQVNLNR was tested. Which protein stability index did it give?
The protein stability index was 0.699 ± 0.17.

For GKPTPRRPEKDG, which protein stability index is on record?
The protein stability index was 0.6096 ± 0.0051.

With SPLPPPPHPSPF as the sequence, how does the protein stability index read?
Its protein stability index is 0.505 ± 0.017.

With PLPLHPSALPSL as the sequence, how does the protein stability index read?
The protein stability index was 0.676 ± 0.05.

TTRKMGTRAPSL was tested. Which protein stability index did it give?
Its protein stability index is 0.647 ± 0.095.

For RGRFGYTSSTLA, which protein stability index is on record?
Its protein stability index is 0.686 ± 0.041.

With DKSGVYYMYSFK as the sequence, how does the protein stability index read?
Its protein stability index is 0.733 ± 0.059.

Which protein stability index does the source give for RPMKGLSMGSCA here?
The protein stability index was 0.66 ± 0.011.

Which protein stability index does the source give for WCLNMLLIPSMY here?
The protein stability index was 0.605 ± 0.021.

Which protein stability index does the source give for GFFNNRLASSLR here?
Its protein stability index is 0.734 ± 0.098.

With RDGKRHSSQWRG as the sequence, how does the protein stability index read?
Its protein stability index is 0.659 ± 0.037.

How did the protein stability index turn out when VWRVGRARGQMG was run?
The protein stability index was 0.6953 ± 0.0017.

With LLVLGHVCAANF as the sequence, how does the protein stability index read?
Its protein stability index is 0.601 ± 0.0094.

For RPLRVLSYVPIH, which protein stability index is on record?
Its protein stability index is 0.644 ± 0.03.

For GGWGVGVWGVGG, which protein stability index is on record?
Its protein stability index is 0.753 ± 0.08.

With GFVPWVCGVRMS as the sequence, how does the protein stability index read?
The protein stability index was 0.689 ± 0.051.

With AGFGVGALSRSG as the sequence, how does the protein stability index read?
Its protein stability index is 0.673 ± 0.041.

For RGFPPPPLLSSR, which protein stability index is on record?
The protein stability index was 0.74 ± 0.059.

With NVLIASGIEVKK as the sequence, how does the protein stability index read?
Its protein stability index is 0.629 ± 0.0099.

Which protein stability index does the source give for QHHRTSIPSSPV here?
The protein stability index was 0.671 ± 0.025.

PSPPPTPPLICL was tested. Which protein stability index did it give?
Its protein stability index is 0.697 ± 0.025.

With EIKNKENKLKKT as the sequence, how does the protein stability index read?
The protein stability index was 0.684 ± 0.03.

With RGVGAGGLEGIG as the sequence, how does the protein stability index read?
The protein stability index was 0.535 ± 0.011.

With APVRSSIALKSD as the sequence, how does the protein stability index read?
The protein stability index was 0.703 ± 0.035.

Which protein stability index does the source give for APFPPHPPPPPS here?
The protein stability index was 0.707 ± 0.043.

With PGPNPASCIPTW as the sequence, how does the protein stability index read?
The protein stability index was 0.6835 ± 0.0021.

For TPASPSPPPRPP, which protein stability index is on record?
The protein stability index was 0.625 ± 0.019.

How did the protein stability index turn out when GSVMGVGLEKKI was run?
Its protein stability index is 0.732 ± 0.052.

How did the protein stability index turn out when VNEEGCDILVRT was run?
Its protein stability index is 0.757 ± 0.013.

How did the protein stability index turn out when HPKASNSLRFSS was run?
The protein stability index was 0.649 ± 0.0072.

For RKEAVTQTQKNT, which protein stability index is on record?
The protein stability index was 0.672 ± 0.051.

How did the protein stability index turn out when VFGGSLICVFRV was run?
The protein stability index was 0.567 ± 0.025.

How did the protein stability index turn out when TLTPPPSTSLPP was run?
Its protein stability index is 0.645 ± 0.067.

How did the protein stability index turn out when VTLWQLANNTLG was run?
Its protein stability index is 0.626 ± 0.028.

For VSDVIPRSRCVR, which protein stability index is on record?
Its protein stability index is 0.6884 ± 0.0024.

For GGPPTQAKPSPR, which protein stability index is on record?
Its protein stability index is 0.647 ± 0.012.

For PPTVSRPPHLPT, which protein stability index is on record?
Its protein stability index is 0.69 ± 0.048.

Which protein stability index does the source give for DSVGVLVPRGFR here?
The protein stability index was 0.766 ± 0.045.

For TVYTPGVFVKTV, which protein stability index is on record?
Its protein stability index is 0.562 ± 0.044.

With PIALPLPPPTPS as the sequence, how does the protein stability index read?
The protein stability index was 0.757 ± 0.08.

With AAVRCVAEGGAP as the sequence, how does the protein stability index read?
Its protein stability index is 0.637 ± 0.036.

How did the protein stability index turn out when LISLGTYLINGF was run?
The protein stability index was 0.6441 ± 0.0051.

With VDREGFTVLGRV as the sequence, how does the protein stability index read?
The protein stability index was 0.657 ± 0.021.

With GGGNRGTGCDWG as the sequence, how does the protein stability index read?
Its protein stability index is 0.628 ± 0.013.

For NTTKLEKRGNIE, which protein stability index is on record?
Its protein stability index is 0.574 ± 0.084.

AGGWRGAEGCGG was tested. Which protein stability index did it give?
Its protein stability index is 0.782 ± 0.083.

For KGRLVGWDRNRI, which protein stability index is on record?
Its protein stability index is 0.75 ± 0.07.

For NWRAAGQSGPES, which protein stability index is on record?
Its protein stability index is 0.67 ± 0.012.

For SPPSPFAFPLPP, which protein stability index is on record?
Its protein stability index is 0.67473 ± 0.00064.

With HVLRCRASLLFL as the sequence, how does the protein stability index read?
The protein stability index was 0.6305 ± 0.0031.

For QKKNSKKIKPKR, which protein stability index is on record?
Its protein stability index is 0.694 ± 0.026.

GLFPGSRLRLVE was tested. Which protein stability index did it give?
The protein stability index was 0.666 ± 0.011.

With NGTGGVSSLAFG as the sequence, how does the protein stability index read?
Its protein stability index is 0.6399 ± 0.0013.

PPAPSPLPPPPF was tested. Which protein stability index did it give?
The protein stability index was 0.756 ± 0.03.

PRVPSSPNPPPI was tested. Which protein stability index did it give?
Its protein stability index is 0.805 ± 0.025.

Which protein stability index does the source give for KKKKAKKIKKQK here?
The protein stability index was 0.675 ± 0.059.
